Common to all, as to assay: FACS, 1 ug/mL antibody, transfected 293F cells
For orientation: In flow cytometry, cells or beads pass a laser one at a time.

In one experiment the target is T1, Variant 10: xPro1.FL-x10 (human; mouse).
T1 construct: Chimeric full-length LAG-3 on transfected 293F cells
T1 chain: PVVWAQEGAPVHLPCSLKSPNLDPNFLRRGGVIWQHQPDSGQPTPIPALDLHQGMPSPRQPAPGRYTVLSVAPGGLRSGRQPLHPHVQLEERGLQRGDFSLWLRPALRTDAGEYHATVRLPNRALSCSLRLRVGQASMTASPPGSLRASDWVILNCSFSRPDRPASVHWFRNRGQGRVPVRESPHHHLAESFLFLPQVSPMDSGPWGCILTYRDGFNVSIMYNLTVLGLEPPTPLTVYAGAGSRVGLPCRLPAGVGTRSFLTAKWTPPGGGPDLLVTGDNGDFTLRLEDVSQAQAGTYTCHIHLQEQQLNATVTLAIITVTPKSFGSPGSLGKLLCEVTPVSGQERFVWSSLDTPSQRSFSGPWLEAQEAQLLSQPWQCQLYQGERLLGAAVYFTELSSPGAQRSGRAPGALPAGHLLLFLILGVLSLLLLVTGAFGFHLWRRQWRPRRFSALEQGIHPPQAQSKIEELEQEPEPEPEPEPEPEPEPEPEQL
As for the experimental part:
(§1) The 10 variants were cloned into pcDNA3 vector and used for 293F cell transfection. Briefly, 293F cells were diluted to a density of 1×10⁶ cells/mL with FreeStyle 293F medium and aliquots of 3 mL/well were added to 24-well plate. Transfections were performed using 293fectin reagent (Life Technologies). For each transfection, 3 μg of DNA were diluted in 150 μOpti-MEM I-reduced serum medium (Life Technologies), and then combined with 6μL 293fectin reagent pre-diluted in 150 μL Opti-MEM I reduced serum medium. The DNA/[…] mixture was allowed to stand at 25° C. for 20 min before being added to the culture. The transfected cells were analyzed by flow cytometry at 48 h post-transfection.
(§2) Binding of antibodies to chimeric LAG-3 variants or full length human/mouse LAG-3 was analyzed by flow cytometry. Briefly, 1 μg/mL antibodies were incubated with chimeric LAG-3-expressing transfected 293F cells for 1 hour at 4° C., and then incubated with 3 μg/mL goat anti-human IgG Fc R-PE (Jackson) for 40 min at 4° C. Cells were analyzed with flow cytometer.

In another experiment the target is T2, Variant 5: xPro1.FL-x5 (human; mouse).
T2 construct: Chimeric full-length LAG-3 on transfected 293F cells
T2 chain: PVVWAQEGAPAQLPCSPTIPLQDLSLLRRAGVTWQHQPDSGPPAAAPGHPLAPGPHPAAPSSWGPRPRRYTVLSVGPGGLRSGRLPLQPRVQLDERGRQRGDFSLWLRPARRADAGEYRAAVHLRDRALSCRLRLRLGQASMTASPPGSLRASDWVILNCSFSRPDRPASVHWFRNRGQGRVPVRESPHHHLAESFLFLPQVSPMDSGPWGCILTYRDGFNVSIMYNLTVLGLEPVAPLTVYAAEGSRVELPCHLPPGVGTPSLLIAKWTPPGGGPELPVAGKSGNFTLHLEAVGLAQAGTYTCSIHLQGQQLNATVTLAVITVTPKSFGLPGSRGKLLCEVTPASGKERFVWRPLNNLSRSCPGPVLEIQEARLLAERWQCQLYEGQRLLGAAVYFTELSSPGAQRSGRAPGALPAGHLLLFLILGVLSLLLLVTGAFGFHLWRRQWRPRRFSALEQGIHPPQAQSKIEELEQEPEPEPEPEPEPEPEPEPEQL
On the procedure:
as §1, §2

Experiment [1] deals with T3, full-length human LAG-3 on cells (human, UniProt P18627 23-525).
T3 construct: Expressed on Flp-In-293, CHO or 293F transfectants; also called hPro1.FL; cell surface human LAG-3
T3 sequence: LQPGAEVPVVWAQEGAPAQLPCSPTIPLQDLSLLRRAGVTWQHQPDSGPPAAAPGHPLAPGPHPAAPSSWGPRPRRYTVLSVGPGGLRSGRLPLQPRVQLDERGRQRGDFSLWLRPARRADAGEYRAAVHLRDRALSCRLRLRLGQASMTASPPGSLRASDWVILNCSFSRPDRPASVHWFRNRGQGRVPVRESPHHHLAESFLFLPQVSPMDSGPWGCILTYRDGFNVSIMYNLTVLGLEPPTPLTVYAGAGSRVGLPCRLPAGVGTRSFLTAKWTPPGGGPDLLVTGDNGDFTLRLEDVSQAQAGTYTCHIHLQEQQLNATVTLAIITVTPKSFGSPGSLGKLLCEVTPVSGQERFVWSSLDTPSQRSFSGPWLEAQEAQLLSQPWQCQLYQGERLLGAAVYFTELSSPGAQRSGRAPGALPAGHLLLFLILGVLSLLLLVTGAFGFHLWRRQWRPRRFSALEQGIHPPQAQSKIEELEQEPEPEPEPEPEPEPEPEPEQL
On the procedure:
as §1, §2

In another experiment the target is T4, Variant 6: xPro1.FL-x6 (human; mouse).
T4 construct: Chimeric full-length LAG-3 on transfected 293F cells
T4 chain: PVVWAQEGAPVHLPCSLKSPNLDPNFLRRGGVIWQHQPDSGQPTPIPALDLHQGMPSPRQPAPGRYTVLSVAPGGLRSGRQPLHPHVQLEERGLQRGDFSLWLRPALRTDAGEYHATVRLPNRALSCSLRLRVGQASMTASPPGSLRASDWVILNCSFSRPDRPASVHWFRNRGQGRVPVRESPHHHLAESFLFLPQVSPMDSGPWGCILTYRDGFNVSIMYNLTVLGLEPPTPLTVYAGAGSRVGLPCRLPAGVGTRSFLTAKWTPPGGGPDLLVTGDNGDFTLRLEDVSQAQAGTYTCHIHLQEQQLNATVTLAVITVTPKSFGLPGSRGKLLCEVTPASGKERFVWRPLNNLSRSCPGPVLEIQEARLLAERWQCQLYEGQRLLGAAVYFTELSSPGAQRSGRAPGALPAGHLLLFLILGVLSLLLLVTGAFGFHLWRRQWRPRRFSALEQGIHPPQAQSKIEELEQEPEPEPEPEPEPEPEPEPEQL
As for the experimental part:
as §1, §2

B1: 1.53.3-uAb-IgG4k (antibody, V domains shown)
VH: QVQLQQWGAGLLKPSETLSLTCGVYGGSFSGYYWSWIRQPPGMGLEWIGEINHRGNTNYNPSLKSRVTISEDTSKNQFSLRLSSVTAADTAVYFCTRGEDYSDYDYYGDFWGQGTLVTVSS
VL: EIVLTQSPATLSLSQGERATLSCRASQSISSYLAWYQQKPGQAPRLLIYAASNRATGIPARFSGSGSGTDFTLTISSLEPEDFAIYYCQQRSNWPLTFGGGTKVEIK
notes: Fully human antibody from OMT rats; IgG4 kappa by its name
On to B1, for which the MFI with Variant 10: xPro1.FL-x10 is 42.3; in the experiment with Variant 5: xPro1.FL-x5 it was 6260; in experiment [1] it was 6540; with Variant 6: xPro1.FL-x6, 59.9. In addition, the “PE+ %” value was 1.98% with Variant 10: xPro1.FL-x10, 97.1% in the experiment with Variant 5: xPro1.FL-x5, 96.8% in experiment [1] and 1.86% with Variant 6: xPro1.FL-x6.

B2: 3.40.19-uAb-IgG4L (antibody, V domains shown)
VH: QLQLQESGPGLVKPSETLSLTCTVSGDSISSTSYYWGWIRQPPGKGLEWIGSFYYSGSTYYNPSLKSRVTISVDTSKNQFSLKLNSVTAADTAVYYCARMQLWSYDVDVWGQGTTVTVSS
VL: QSALTQPASVSGSPGQSITISCTGTSSDVGGYDYVAWYQQHPGKVPKLMIYDVSERPSGVSNRFSGSKSGNTASLTISGLQAEDEADYYCSSYTSTTTLVVFGGGTKLSVL
notes: Fully human antibody from OMT rats; IgG4 lambda by its name; also called 3.40.19-uAb-hIgG4L
For B2, the MFI with Variant 10: xPro1.FL-x10 turned out to be 68.5; in the experiment with Variant 5: xPro1.FL-x5, 7070; in experiment [1], 6520; with Variant 6: xPro1.FL-x6 it was 44.1. Moreover, the “PE+ %” value with Variant 10: xPro1.FL-x10 turned out to be 0.988%; in the experiment with Variant 5: xPro1.FL-x5 it was 75.9%; in experiment [1], 83.5%; with Variant 6: xPro1.FL-x6 it was 0.674%.
